Data reported in patent publication US6132711A, “Enzymatic antioxidant of allene oxide for lipid peroxidation in biological systems” (Arizona Board of Regents, priority 1997, dated 2000).
Entries after “also recorded” stand apart in the source; their conditions may differ.

Assays:
tobacco leaf disks = experiment: Cell leakage analysis of leaf disks treated with methyl viologen; format: cell-based, tobacco cv. Samsun; settings: transgenic AOS tobacco vs untransformed control; 1.2 μM methyl viologen
Description: Transgenic cv. Samsun tobacco plants that […] AOS and untransformed cv. Samsun plants were gown in a growth chamber maintained at 28° C. and an irradiance of 500 μmole quanta per square meter per sec. at 16 hours per day. Leaf disks of transgenic plants (FIG. 20, disks 3, 6, 14 and 17) were compared with untransformed plants (FIG. 20, disk C) according to the general method set forth in Gupta et al., Proc. Natl. Acad. Sci. USA 90: 1629-1633 (1993).
Leaf disks (2 cm^2) were collected from tobacco plants and placed in petri dishes (15×60 mm) containing 4 ml of a 1.2 μM methyl viologen (MV) solution and vacuum infiltrated for 5 min. MV values are means ±SD (n=4). The samples were incubated at 22° C. for 16 hours in darkness followed by illumination at 500 μM quanta per square meter per sec. for 2 hours. The leaf disks then were incubated for an additional 16 hours in darkness.
The MV solution was collected for conductivity with leaf disks then was autoclaved for 10 min. at 121° C. The conductivity of the autoclaved solution was again measured. The present electrolyte leakage was determined by dividing the value of conductivity of MV solution by the value obtained after autoclaving.

[1] = Prenyltransferase activity: incorporation of 14C-isopentenyl pyrophosphate into isoprenoid derivatives, TLC; format: biochemical, guayule; settings: CHAPS-solubilized, filtered RPP; DMAPP as initiator; 100 μl aliquots
Description: Biochemical analyses were performed on RPP purified from rubber particles. Three-times-washed rubber particles were prepared by centrifugation according to Cornish and Backhaus, op cit. (1990) from a crude homogenate of guayule stembark. […] Prenyltransferase activity was determined for each purification step by measuring the incorporation of ^14 C-isopentenyl pyrophosphate into isoprenoid derivatives that were analyzed by TLC (benzene/ethyl acetate, 90/10) and autoradiography (Dogbo and Camara, Plant Sci. 49: 103-109 (1987); Kuntz et al., Plant J. 2:25-34 (1992)). Dimethylallyl pyrophosphate (DMAPP) was used as the initiator to measure activity in 100 μl aliquots of proteins from each of the three steps (FIG. 6B, lanes 1-3). […] However, prenyltransferase activity was present in both the crude homogenate and washed preparations containing rubber particles (cf. FIG. 6B, lane 3 with lanes 1 and 2). […]
Washed rubber particles were prepared by centrifugation according to Cornish and Backhaus, op cit.(1990) from a crude homogenate of guayule stembark. […] Prenyltransferase activity was determined for each purification step by measuring the incorporation of ^14 C-isopentenyl pyrophosphate into isoprenoid derivatives according to Dogbo and Camara, op cit. […]

lipid hydroperoxides = settings: Hamberg 1987; cited from earlier work
[2] = Backhaus et al. 1991; cited from earlier work
[3] = system: linoleic acid hydro peroxide (LOOH); experiment: AOS activity assay: degradation of linoleic hydroperoxide (LOOH) followed at 234 nm; format: biochemical, guayule
Description: A difference spectra of this extract clearly indicated a characteristic peak at 450 nm (arrow, FIG. 6C). […] This substrate was prepared according to Zimmerman (Zimmerman, Biochem. Biophys. Res. Comm. 23:398-403 (1966); Zimmerman and Feng, Lipids 13:313-316 (1978); Zimmerman and Vick, Plant. Physiol. 46:445-453 (1970)).
(1991) and Zimmerman, op cit. (1966); Zimmerman and Vick, op cit. (1970) and Zimmerman and Feng, op cit. (1978)

[4] = system: linoleic acid conjugated dienes; experiment: UV spectrophotometry of superoxide-induced linoleic acid conjugated dienes (A234); format: biochemical, guayule
Description: Likewise, the effect of superoxide, produced by the riboflavin/TEMED mixture and light, on lipid peroxidation was determined. […] The mixture was exposed to light and scanned in a UV spectrophotometer at 200 to 300 nm at 10 sec intervals for 2 minutes and again at 5 and 10 min. The effect of AOS on superoxide-inducedlinoleic hydroperoxides was determined using partially pure AOS solubilized from fresh rubber particles using the CHAPS extraction and filtration procedure (Pan et al., J Biol Chem 270: 8487-8494, 1995), which removed all remaining rubber. One μg partially pure AOS was added to oxidized linoleic acid and UV scanned at 2 minute intervals.
This mixture was scanned at A234 followed by addition of riboflavin/TEMED and exposure to 10 min. of light, to produce superoxide. The mixture was rescanned at 10 min intervals.

B1: RPP: polypeptide of 53,500 Daltons from guayule rubber particles; non-mono-oxygenase cytochrome P450 heme-binding protein, a species of allene oxide synthase (protein)
chain: MDPSSKPLREIPGSYGIPFFQPIKDRLEYFYGTGGRDEYFRSRMQKYQSTVFRANMPPGPFVSSNPKVIVLLDAKSFPILFDVSKVEKKDLFTGTYMPSTKLTGAYRVLSYLDPSEPRHAQLKNLLFFMLKNSSNRVIPQFETTYYELFEGLEAELAKNGKAAFNDVGEQAAFRFLGRAYFNSNPEETKLGTSAPTLISSWVLFNLAPTLDLGLPWFLQEPLLHTFRLPAFLIKSTYNKLYDYFQSVATPVMEQAEKLGVPKDEAVHNILFAVCFNTFGGVKILFPNTLKWIGVAGENLHTQLAEEIRGAIKSYGDGNVTLEAIEQMPLTKSVVYESLRIEPPVPPQYGKAKSNFTIESHDATFEVKKGEMLFGYQPFATKDPKVFDRPEEFVPDRFVGDGEALLKYVWWSNGPETESPTVENKQCAGKDFVVLITRLFVIELFRRYDSEIELGESPLGAAVTLTFLKRASI
percent electrolyte leakage (tobacco leaf disks): substantially less percent electrolyte leakage
prenyltransferase activity [1]: complete absence of prenyltransferase activity; also recorded: synthesizes no isoprenes
kcat (lipid hydroperoxides): > 1000 s⁻¹
isoelectric point (pI), experimental value [2]: 6.2
AOS activity (LOOH degradation) ([3]; UV spectra at 10 sec intervals): high AOS activity
time to complete disappearance of LOOH (234 nm peak) ([3]; enzyme preparation added to cuvette with LOOH, repetitive UV scans at 10 sec intervals): 10 min
A234 increase on exposure to light (superoxide) with AOS present ([4]; linoleic acid + riboflavin/TEMED + AOS): prevented the increase in A234
A234 (conjugated dienes) after AOS added to oxidized linoleic acid ([4]; linoleic acid oxidized by riboflavin/TEMED in light, 1 μg partially pure AOS, listed as AOS): A234 decreased; also recorded: time-dependent disappearance of conjugated dienes
